From US20110229981A1
Blank lines part the entries; values can stand above or below the substance they belong to.

Tests used:
[1] = molecular target: CD31 solubilized from Jurkat T cell lysates and captured on PECAM 1.2-coupled CBA beads (human) (UniProt P16284); test: co-capture on PECAM 1.2 CBA beads from Jurkat lysate, anti-CD3-FITC, flow cytometry; T-cell activation (CD3 crosslink)
[2] = molecular target: CD31 solubilized from Jurkat T cell lysates and captured on PECAM 1.2-coupled CBA beads (human) (UniProt P16284); test: co-capture on PECAM 1.2 CBA beads from Jurkat lysate, anti-CD3-FITC, flow cytometry; negative control (unstimulated)
[3] = molecular target: CD31 solubilized from Jurkat T cell lysates and captured on PECAM 1.2-coupled CBA beads (human) (UniProt P16284); test: co-capture on PECAM 1.2 CBA beads from Jurkat lysate, anti-CD3-FITC, flow cytometry; positive pY control (Na3VO4/H2O2)
[4] = molecular target: CD31 solubilized from Jurkat T cell lysates and captured on PECAM 1.2-coupled CBA beads (human) (UniProt P16284); test: co-capture on PECAM 1.2 CBA beads from Jurkat lysate, anti-CD3-FITC, flow cytometry; antibody CD31 treatment (CD3 + CD31 crosslink)
[5] = molecular target: CD31 solubilized from Jurkat T cell lysates and captured on PECAM 1.2-coupled CBA beads (human) (UniProt P16284); test: co-capture on PECAM 1.2 CBA beads from Jurkat lysate, anti-CD28-PE, flow cytometry; T-cell activation (CD3 crosslink)
[6] = molecular target: CD31 solubilized from Jurkat T cell lysates and captured on PECAM 1.2-coupled CBA beads (human) (UniProt P16284); test: co-capture on PECAM 1.2 CBA beads from Jurkat lysate, anti-CD28-PE, flow cytometry; antibody CD31 treatment (CD3 + CD31 crosslink)
[7] = molecular target: CD31 solubilized from Jurkat T cell lysates and captured on PECAM 1.2-coupled CBA beads (human) (UniProt P16284); test: co-capture on PECAM 1.2 CBA beads from Jurkat lysate, anti-CD28-PE, flow cytometry; peptide CD31 treatment (CD3 crosslink + CD31 peptide)
[8] = molecular target: CD31 solubilized from Jurkat T cell lysates and captured on PECAM 1.2-coupled CBA beads (human) (UniProt P16284); test: co-capture on PECAM 1.2 CBA beads from Jurkat lysate, anti-CD28-PE, flow cytometry; negative control (unstimulated)
[9] = molecular target: CD31 solubilized from Jurkat T cell lysates and captured on PECAM 1.2-coupled CBA beads (human) (UniProt P16284); test: co-capture on PECAM 1.2 CBA beads from Jurkat lysate, anti-CD28-PE, flow cytometry; positive pY control (Na3VO4/H2O2)
[10] = molecular target: CD31 solubilized from Jurkat T cell lysates and captured on PECAM 1.2-coupled CBA beads (human) (UniProt P16284); test: co-capture on PECAM 1.2 CBA beads from Jurkat lysate, anti-SHP2-PE, flow cytometry; peptide CD31 treatment (CD3 crosslink + CD31 peptide)
[11] = molecular target: CD31 solubilized from Jurkat T cell lysates and captured on PECAM 1.2-coupled CBA beads (human) (UniProt P16284); test: co-capture on PECAM 1.2 CBA beads; peptide CD31 treatment against CD3 crosslink conditions
[12] = molecular target: CD31 solubilized from Jurkat T cell lysates and captured on PECAM 1.2-coupled CBA beads (human) (UniProt P16284); test: co-capture on PECAM 1.2 CBA beads from Jurkat lysate, anti-SHP2-PE, flow cytometry; negative control (unstimulated)
[13] = molecular target: CD31 solubilized from Jurkat T cell lysates and captured on PECAM 1.2-coupled CBA beads (human) (UniProt P16284); test: co-capture on PECAM 1.2 CBA beads; antibody CD31 treatment against CD3 crosslink conditions
[14] = molecular target: CD31 solubilized from Jurkat T cell lysates and captured on PECAM 1.2-coupled CBA beads (human) (UniProt P16284); test: co-capture on PECAM 1.2 CBA beads from Jurkat lysate, anti-SHP2-PE, flow cytometry; antibody CD31 treatment (CD3 + CD31 crosslink)
[15] = molecular target: CD31 solubilized from Jurkat T cell lysates and captured on PECAM 1.2-coupled CBA beads (human) (UniProt P16284); test: co-capture on PECAM 1.2 CBA beads from Jurkat lysate, anti-SHP2-PE, flow cytometry; T-cell activation (CD3 crosslink)
[16] = molecular target: CD31 solubilized from Jurkat T cell lysates and captured on PECAM 1.2-coupled CBA beads (human) (UniProt P16284); test: co-capture on PECAM 1.2 CBA beads from Jurkat lysate, anti-SHP2-PE, flow cytometry; positive pY control (Na3VO4/H2O2)

MFI CD3 [1]: 17900 MFI
MFI CD3 [2]: 197 MFI
MFI CD3 [3]: 354 MFI
MFI CD3 [4]: 2420 MFI
Substance: CD3 (receptor)

MFI CD28 [5]: 25200 MFI
MFI CD28 [6]: 17100 MFI
MFI CD28 [7]: 24300 MFI
MFI CD28 [8]: 8160 MFI
MFI CD28 [9]: 3930 MFI
Substance: CD28 (from UniProt P10747 19-220) (receptor)

MFI SHP-2 [10]: 185 MFI
increase of the amount of SHP-2 associated to CD31 [11]: 100%
MFI SHP-2 [12]: 165 MFI
increase of the amount of SHP-2 associated to CD31 [13]: 50%
MFI SHP-2 [14]: 149 MFI
MFI SHP-2 [15]: 90 MFI
MFI SHP-2 [16]: 193 MFI
Substance: SHP-2 (from UniProt Q06124 2-593) (enzyme)
